From the DeepSol protein solubility set

test: soluble on expression in E. coli; label from the status in PepcDB or PDB records

Sequence	soluble on expression in E. coli
MKNNKPICFYDIYCFKPQECFKRNDINLLEDKLKRYSKITFLRNKENPEIIFLLGGDGSFINFINQQWKKNVKIVGINYGQLGFYSSYDSIKTINLDEIIDENMYYNPLLLKVSINNQNFFYCLNELSLFSNELVSFDISINDYPYEKFRGSGLLFVTPSGSTGKNKTAFGPIIFNNHENFIMTEIFPVNHLKYSSLNAPVVFRKDYKISLTNIKFKKSFSVAIDGNIINFSDKINDIKVETIQASSKIHGLNNFKKYIDKLNKSFIKGEMAGDPLEHHHHHH	soluble
MIFVLDVGNTNTVLGVYDGDELKHHWRIETSRSKTEDEYGMMIKALLNHVGLQFSDIRGIIISSVVPPIMFALERMCLKYFHIKPLIVGPGIKTGLDIKYDNPREVGADRIVNAVAGIHLYGSPLIIVDFGTATTYCYINEHKQYMGGAIAPGIMISTEALFARAAKLPRIEIARPDDIIGKNTVSAMQAGILYGYVGQVEGIVSRMKAKSKIPPKVIATGGLAPLIASESDIIDVVDPFLTLTGLKLLYEKNTEKKG	soluble
MLWRKRLFAHLYPGLSARHEALVAERKRALFREALRRARPERVLEIGPGPGTNLAHLPEGVAYLALEPNPFFHPRLREEARKRGLALTLLPGRAEAIPLPGGSVDLVVATLVLCSVADPEKAIEEVHRVLRPGGAYLFLEHVAAPKGAPLRLLQEAATPFFVFFGDGCHPNRKTLAQIQARFPRVEAEAFSLPLPVVAPHVAGLAFKELEHHHHHH	not soluble
MKKVEVLKRLENAGVIAVLRADSKEEALKISHAVVEGGMIGLELTFTVPQADEVIRSLVETYHDEKDIVIGAGTVLDAVTARLAIMAGAEFIVSPSFNRETAEICNLYQVPYLPGCMTITEMQTALKSGVDIVKLFPGSTYGPSIISAFQAPLPYLNIMPTGGVSLDNMASWFEAGVTAVGVGGNLLAHAKTGEFGKVTALAKQYMAKFREIKEN	not soluble
MGSDKIHHHHHHSCDDDGYSIGDIGWDWATVRATGGGGYYLEGDRWGMIDPVASSIPWYKPVDGERVVAFFNPLADTDKGAQVKIEGIQEVLTKEVEDMTAENEEEFGNDPIVIYQGDMWLGGKFLNIIFHQYLPRSEKHRISLVQNKIEPEAPETPEALNVDEDGYIHLELRYNTYDDVTGYRGWGRVSYNLEEFYPTAKDAAETEFKGFKVTINSKENGEGRVIVLDLDHPVGVPEKAKDVHSTSFVK	not soluble
MAHHHHHHMERMSLAVVRQLDADHERGGIWYLSGHRDHVLSIAASSHGVFATCDAKGLGLLWKHDTSHSNSDPSHVSRISSEGPAIVAACFPSSTRLCTAQGNGRVGVWDIEASTEVQSLSRLPSRGKSVNWPVINALSAWESDLVAYGGDDGYLVLSSLAVRNPVVSVNLRVPITSVAAAATSLLVGDVLGNIRCFDTRTFKSLYCFQGHRGVVTSVSVKEDASLAVSYGMDDSLALWNALPFSLTTEDRLIHRGEFHQGDTKTLLRCDWATSGAALVPVSDGRVVYLSAPTLDGIRTILPGRHRREPAQCAAFIGDGYAVSSAETEVILQRI	not soluble
SSWKPRSQQPDAPLGTGANRDLELPWLEQQGPASHHRRQLGPQGPPHLVADPSKKQGPWLEEEEEAYGWMDFGRRSAEDEN	soluble
MKRDKEVSINKKDPFSVLIMGVDERDGDKGRADTLIYMTVNPKTNTTDMVSIPRDTYTKIIGKGTMDKINHSYAFGGTQMTVDTVENFLDVPVDYFVKVNMESFRDVVDTLGGITVNSTFAFSYDGYSFGKGEITLNGKEALAYTRMRKEDPRGDFGRQDRQRQVIQGIINKGANISSITKFGDMFKVVENNVKTNLTFDNMWDIQSDYKGARKHIKQHELKGTGTKINGIYYYQADESALSDITKELKESLEKLEHHHHHH	soluble
GSRPATPPVTPPSREGHVADLDRFPQDLRVYAMKAGADRQLLPFTEQAAQDARWNRRFFAPWRMTRISVPVKDVAAPFGTDGRPRGYAENLLPWDVTRWGALASGAALDLYPSQAWKGIVVSNSALREVPTLRPMFTAPTRAGQGYPFDMFQRTAVWMGTPVFVGHATADRAWLYVETAFAAGWMPAADVARVDDAFMTRYESGSLAAILRDDTSLNGADGTHLATAHIGTVLPLSGASQVGRTVLVPVRAPEGHAVVVPVLLTSGEAAQKPVPLTPGNMAELGNRMMGQPYGWGGLYEDRDCSSTLRDLFTPFGLWLPRNSASQAKAGRYVDIAKLDADDKEARIVAEGVPFMTLLWLRGHITLYLGLHEGQAAMFHNMWGIRTHRGGVEGRYVLGRAVVTSTRPGLDVPGNDNADGLLGRMQGMSILPGGAQ	soluble
MNQGERNAVSLLKDKLFNEEGKPVNLIFCYTILQMKVAERIMAQHPGERFYVVLMSENRNEKYDYYFNQIKDKAERAYFFYLPYGLNKSFNFIPTMAELKVKSMLLPKVKRIYLASLEKVSIAAFLSTYPDAEIKTFDDGTNNLIRESSYLGGEFAVNGAIKRNFARMMVGDWSIAKTRNASDEHYTIFKGLKNIMDDGRRKMTYLPLFDASELKAGDETGGTVRILLGSPDKEMKEISEKAAKNFNIQYVAPHPRQTYGLSGVTALNSPYVIEDYILREIKKNPHTRYEIYTFFSGAALTMKDFPNVHVYALKPASLPEDYWLKPVYALFRQADIPILAFDDKLEHHHHHH	not soluble
MSDSPIGSSQQVEPEHRTPDLMDIDPLIANLKALHEETRSDDDDDGQPSTSAKRKDSRADGIVIHQKKYSDPGRFLWIWLLGVRVPALSIDGEPHLPIEILDDMLTKKDKKDQMSFQNLLRYKNVYIRMASPSQFRAVMEKSKECENLNITSLSLMSRSDIERIMGELRLESMLTLAEHDNWDISDRVHVVHVNFIDYCSEWLESDDLEEDVMQSGTHGYWYKNRRNMRCIECQHCEGKFTPTDFIMHHHYPIKPSGFVHTGCNSFQWIRLIEVFDKSNENLEAWNKFVLNSHRAGKREYDEAAPHQAPPKRPAMETPVPVAADNGWEADEEEEGEEIVDRDADIEKCKLRNKKKMENLHIADFLGPSGSKGLKPRNKFEAVIIEQLNKMDDAALEALFLKSPEEYNLWVKESDFTHKVVTQQQEWKAKMKDPNFKSRASANFDVSKGEFDNMRHFDNASKATRQEIQQLAEQFANLDRDAKLLTPMEFVLREHALLKNVSADAIRVLCNRPPLPPLPPPPPPPKPKPAPVQPISLGNINFVALAQQLIASGIKLPLPIVTPPVVSTPAPVITPIPAALPISPNSDFLKQQLSTAMSSPALLSLYPKLTAGAYEQLAQFIKTTTVKN	not soluble
GHMSRRYWQLDVFAERPLTGNGLAVFDDASALDDAAMQAWTRELRQFESIFLLPGDDPRAFRARIFTLEEELPFAGHPLLGAAALLHHLRGGDNEQHWTLHLASKSVALRSVRAGSGFYAEMDQGRAEFGATPDAGTCRWFAEAFSLSANDLSGHPPRVVSTGLPYLLLPVTAEALGRARQVNDLQEALDKLGAAFVYLLDVDGREGRTWDNLGLVEDVATGSAAGPVAAYLVEYGLAARGEPFVLHQGRFLERPSRLDVQVATDGSVRVGGHVQLLARAELLTSAGS	soluble
MSLATICSLCNKKISIFKMRLKFKDGVVGQSCLSELNLCNFWAFEPGAKEYAESHTIADLKELQTSGKDFTNIQDQYIDDETKKELQKKQEKKQERQEKIEVLKEFKDDGATKFSSYYFDLKKNQILSSGSLTTSWRVIDFSEVLSYQVNRNGHLEQKHHGIARAVTGGIMAGGVGAIVGTTTGENTDYIDHLGLVINLSDGTNFEVKFLKTKTKTNSFTVKTAEGELRSLISIVQSGMNKAQEKAEQEQTKANTIKIESNADPAEEIRKFKKMADEGIISNEEFEAKKKQLLNLQEGHHHHHH	not soluble
MKKDLSALKEARFNAILDSATILLVENPTASMNEIAEYAGIGIATLHRYVESREKLMLFLGHRAIQLVSDTVNQIPLDEERSENYIPELIEALIPLGDKIYFLGHDASVFNNKELGEAEEKLREPLRRVIELLQQRGYFQQTVSSEWILNTLYALLFHTWEQVHEGNVAKKSAAELVLNTFYYGFKAKDELRGK	not soluble
MGSDKIHHHHHHMTRGIYNAAMGMLVDMAKLDRIANDLANVDTAGYKQDREAFRAYLRREVFRQEPNPVESRTKKVPIGPLEYATVLDEVRTDLSQGPVEETDVPYHLAINGEGFFRIEFNGGEYYTRNGEFTVNSEGYIVTNYGGYLLDENGERVRFFDDFTVDEEGYVRDAYGNIVTRIGVYNLENPEKFGNTLFTGENPSPSENFRIMQGYVEKSNVDALKAMVDMISAMRHYELSQRAVTVNDELNGKLINSLASLK	not soluble
